Results on 91 sequences are retold here after the supplement of paper PMC9112550, “Optimization of the antimicrobial peptide Bac7 by deep mutational scanning” (BMC Biology, 2022).

This data set relates to Escherichia coli TOP10. Put plainly: shrunken log2 fold change of peptide-encoding DNA abundance (4.5 h post-induction vs induction); higher = less antimicrobial activity (less host growth inhibition). Particulars: time post-induction: 4.5 h; library: site-saturation at positions 5, 18, 19, 20.
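Also: peptides expressed intracellularly from a pBAD plasmid library in pooled LB shake-flask culture, induced with 0.3% L-arabinose, DNA abundance read by NGS, three biological replicates, DESeq2 with apeglm shrinkage.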

RRIRSRPPRLPRPRPRPYNCPRP: the “shrunken log2 fold change” value was -0.171.

Take RRIRHRPPRLPRPRPRPTDGPRP: the “shrunken log2 fold change” value was -0.0791.

For RRIRCRPPRLPRPRPRPMHDPRP, the “shrunken log2 fold change” value is 0.0244.

As to RRIRDRPPRLPRPRPRPTHGPRP, the “shrunken log2 fold change” value came out at 0.117.

Turning to RRIRERPPRLPRPRPRPQFEPRP, the “shrunken log2 fold change” value is -0.0369.

Regarding RRIRARPPRLPRPRPRPYYHPRP, the “shrunken log2 fold change” value was -1.02.

Regarding RRIRFRPPRLPRPRPRPWCDPRP, the “shrunken log2 fold change” value is -0.329.

In the case of RRIRNRPPRLPRPRPRPKKWPRP, the “shrunken log2 fold change” value is -0.00407.

RRIRMRPPRLPRPRPRPLWLPRP: the “shrunken log2 fold change” value was 0.563.

With RRIRQRPPRLPRPRPRPHTRPRP, the “shrunken log2 fold change” value came to 0.107.

Turning to RRIRKRPPRLPRPRPRPLLNPRP, the “shrunken log2 fold change” value is -0.295.

For RRIRPRPPRLPRPRPRPNCNPRP, the “shrunken log2 fold change” value was -0.518.

As for RRIRCRPPRLPRPRPRPNMNPRP, the “shrunken log2 fold change” value is -0.88.

Take RRIRNRPPRLPRPRPRPDAAPRP: the “shrunken log2 fold change” value was determined as 0.45.

Consider RRIRDRPPRLPRPRPRPEHEPRP, for which the “shrunken log2 fold change” value was 0.017.

In the case of RRIRRRPPRLPRPRPRPQQPPRP, the “shrunken log2 fold change” value amounted to 0.325.

For RRIRQRPPRLPRPRPRPSPTPRP, the “shrunken log2 fold change” value was 0.292.

With RRIRYRPPRLPRPRPRPILCPRP, the “shrunken log2 fold change” value is -0.0389.

Take RRIRMRPPRLPRPRPRPEWRPRP: the “shrunken log2 fold change” value was 0.829.

In the case of RRIRWRPPRLPRPRPRPHHWPRP, the “shrunken log2 fold change” value worked out at 0.13.

With RRIRNRPPRLPRPRPRPILYPRP, the “shrunken log2 fold change” value is -0.267.

Regarding RRIRDRPPRLPRPRPRPHYPPRP, the “shrunken log2 fold change” value was -0.265.

Regarding RRIRTRPPRLPRPRPRPGNMPRP, the “shrunken log2 fold change” value is -0.0393.

In the case of RRIRFRPPRLPRPRPRPSPWPRP, the “shrunken log2 fold change” value was found to be 1.82.

With RRIRMRPPRLPRPRPRPIAGPRP, the “shrunken log2 fold change” value was -0.0293.

On to RRIRWRPPRLPRPRPRPFFGPRP, for which the “shrunken log2 fold change” value is 0.352.

With RRIRFRPPRLPRPRPRPQEYPRP, the “shrunken log2 fold change” value was -0.541.

Regarding RRIRFRPPRLPRPRPRPLVMPRP, the “shrunken log2 fold change” value is -0.335.

Turning to RRIRDRPPRLPRPRPRPLLEPRP, the “shrunken log2 fold change” value worked out at 0.31.

On to RRIRHRPPRLPRPRPRPLPGPRP, for which the “shrunken log2 fold change” value amounted to 0.103.

As for RRIRVRPPRLPRPRPRPFMVPRP, the “shrunken log2 fold change” value was -0.43.

Consider RRIRSRPPRLPRPRPRPLYCPRP, for which the “shrunken log2 fold change” value is -0.523.

In the case of RRIRTRPPRLPRPRPRPGQGPRP, the “shrunken log2 fold change” value stood at 0.0576.

With RRIRNRPPRLPRPRPRPYTRPRP, the “shrunken log2 fold change” value is -0.124.

Take RRIRWRPPRLPRPRPRPTYQPRP: the “shrunken log2 fold change” value is -0.325.

With RRIRGRPPRLPRPRPRPTCAPRP, the “shrunken log2 fold change” value came to 1.11.

For RRIRMRPPRLPRPRPRPCIRPRP, the “shrunken log2 fold change” value was -0.122.

Turning to RRIRMRPPRLPRPRPRPVYEPRP, the “shrunken log2 fold change” value is 0.352.

In the case of RRIRNRPPRLPRPRPRPELNPRP, the “shrunken log2 fold change” value is -0.0809.

Regarding RRIRERPPRLPRPRPRPPSVPRP, the “shrunken log2 fold change” value was -0.126.

For RRIRDRPPRLPRPRPRPKPGPRP, the “shrunken log2 fold change” value is 0.654.

On to RRIRDRPPRLPRPRPRPPEFPRP, for which the “shrunken log2 fold change” value is -0.0567.

With RRIRCRPPRLPRPRPRPPGNPRP, the “shrunken log2 fold change” value was found to be 0.0392.

Consider RRIRKRPPRLPRPRPRPMSVPRP, for which the “shrunken log2 fold change” value is -0.39.

Regarding RRIRKRPPRLPRPRPRPELQPRP, the “shrunken log2 fold change” value stood at 0.307.

Turning to RRIRSRPPRLPRPRPRPYEGPRP, the “shrunken log2 fold change” value is -0.213.

As for RRIRDRPPRLPRPRPRPIRFPRP, the “shrunken log2 fold change” value was -0.0156.

RRIRKRPPRLPRPRPRPRGAPRP: the “shrunken log2 fold change” value came out at 0.891.

Take RRIRHRPPRLPRPRPRPVPMPRP: the “shrunken log2 fold change” value amounted to 0.0504.

On to RRIRLRPPRLPRPRPRPFMDPRP, for which the “shrunken log2 fold change” value was -0.361.

In the case of RRIRDRPPRLPRPRPRPCQLPRP, the “shrunken log2 fold change” value was -0.0273.

As to RRIRSRPPRLPRPRPRPHQPPRP, the “shrunken log2 fold change” value is -0.00655.

As to RRIRCRPPRLPRPRPRPPKNPRP, the “shrunken log2 fold change” value was 0.5.

For the sequence RRIRWRPPRLPRPRPRPYNPPRP, the “shrunken log2 fold change” value was -1.48.

Regarding RRIRGRPPRLPRPRPRPFTCPRP, the “shrunken log2 fold change” value was -0.22.

With RRIRIRPPRLPRPRPRPSRTPRP, the “shrunken log2 fold change” value is -0.455.

Turning to RRIRSRPPRLPRPRPRPEGYPRP, the “shrunken log2 fold change” value was -0.0595.

On to RRIRARPPRLPRPRPRPRCDPRP, for which the “shrunken log2 fold change” value is 0.324.

With RRIRCRPPRLPRPRPRPLYAPRP, the “shrunken log2 fold change” value was -0.3.

On to RRIRIRPPRLPRPRPRPIKIPRP, for which the “shrunken log2 fold change” value was -0.0548.

RRIRWRPPRLPRPRPRPHVMPRP: the “shrunken log2 fold change” value is -0.254.

For the sequence RRIRSRPPRLPRPRPRPTDSPRP, the “shrunken log2 fold change” value was -0.0593.

Turning to RRIRDRPPRLPRPRPRPTTWPRP, the “shrunken log2 fold change” value was 0.467.

Regarding RRIRKRPPRLPRPRPRPTVRPRP, the “shrunken log2 fold change” value was determined as 0.899.

For the sequence RRIRWRPPRLPRPRPRPFDNPRP, the “shrunken log2 fold change” value was -0.114.

Turning to RRIRRRPPRLPRPRPRPIRQPRP, the “shrunken log2 fold change” value came to 0.00198.

In the case of RRIRRRPPRLPRPRPRPLLRPRP, the “shrunken log2 fold change” value came out at 0.44.

In the case of RRIRMRPPRLPRPRPRPHVGPRP, the “shrunken log2 fold change” value came to 0.105.

As for RRIRHRPPRLPRPRPRPKWEPRP, the “shrunken log2 fold change” value was -0.000889.

As to RRIRFRPPRLPRPRPRPHPAPRP, the “shrunken log2 fold change” value was found to be 0.0971.

In the case of RRIRKRPPRLPRPRPRPYGIPRP, the “shrunken log2 fold change” value is -0.329.

Take RRIRERPPRLPRPRPRPTQLPRP: the “shrunken log2 fold change” value is 0.251.

Take RRIRVRPPRLPRPRPRPETRPRP: the “shrunken log2 fold change” value stood at 0.577.

For RRIRERPPRLPRPRPRPTGFPRP, the “shrunken log2 fold change” value is -0.00436.

Consider RRIRFRPPRLPRPRPRPHADPRP, for which the “shrunken log2 fold change” value came out at 0.0798.

On to RRIRYRPPRLPRPRPRPVQNPRP, for which the “shrunken log2 fold change” value is -0.0153.

As to RRIRCRPPRLPRPRPRPCHLPRP, the “shrunken log2 fold change” value is -0.206.

For RRIRQRPPRLPRPRPRPLNKPRP, the “shrunken log2 fold change” value is -0.503.

Take RRIRFRPPRLPRPRPRPTPFPRP: the “shrunken log2 fold change” value was found to be 0.266.

As for RRIRSRPPRLPRPRPRPFHDPRP, the “shrunken log2 fold change” value is -0.204.

Consider RRIRWRPPRLPRPRPRPAYKPRP, for which the “shrunken log2 fold change” value was -0.182.

As to RRIRPRPPRLPRPRPRPWEIPRP, the “shrunken log2 fold change” value is -0.00151.

Turning to RRIRERPPRLPRPRPRPFYHPRP, the “shrunken log2 fold change” value is -1.01.

Turning to RRIRGRPPRLPRPRPRPAIHPRP, the “shrunken log2 fold change” value is 0.164.

Take RRIRYRPPRLPRPRPRPRKEPRP: the “shrunken log2 fold change” value is 0.00543.

For RRIRCRPPRLPRPRPRPAAYPRP, the “shrunken log2 fold change” value is -0.101.

RRIRSRPPRLPRPRPRPETGPRP: the “shrunken log2 fold change” value is 0.105.

Take RRIRVRPPRLPRPRPRPTAAPRP: the “shrunken log2 fold change” value came to 0.09.

Regarding RRIRERPPRLPRPRPRPQVQPRP, the “shrunken log2 fold change” value amounted to 0.029.

With RRIRGRPPRLPRPRPRPDANPRP, the “shrunken log2 fold change” value was found to be 1.99.

For RRIRNRPPRLPRPRPRPALRPRP, the “shrunken log2 fold change” value came out at 0.0951.
